Five molecules from US20260250418A1 (BIOCYTOGEN PHARMACEUTICALS BEIJING, published 2026) can be followed below.

Broadly, the Kd is the constant that tells how readily two partners part at equilibrium. One may read the koff as the first-order rate constant of dissociation. In general, kon refers to the second-order rate constant of association.

First the molecules themselves.
B1: anti-HER3/MET bispecific antibody 3E1-8H10 (bispecific antibody, V domains shown)
VH 1: EVQLVQSGPVLAKPTETLTLTCTVSGFSLSNIRMGVSWIRQPPGKALEWLAHIFSNDDKSYSPSLKNRLTISKDTSKSQVVLTMTTMDPMDTATYYCTRMKYSGGPFDYWGQGTLVTVSS
VH 2: QVQLQQWGAGLLKPSETLSLTCAVYGGSFSGYYWTWIRQPPGKGLEWIGESNHGGSTNFNPSLKSRVTISVDTSKNHFSLKLSPVTAADTAVYYCTRGGTIFGLKDAFDIWGQGTMVTVSS
VL: not shown
B2: anti-HER3/MET bispecific antibody 1B2-8H10 (bispecific antibody, V domains shown)
VH 1: QVQLVQSGPVLVKPTETLTLTCTVSTFSLSNARMGVSWIRQPPGKALEWLAHIFSNDDKSYSPSLKSRLTISKDTSKTQVVLTMTNMDPVDTATYYCSRMRYSGGPFDYWGQGSLVTVSS
VH 2: B1 VH 2
VL: not shown
B3: anti-HER3/MET bispecific antibody 1C5-8D9 (bispecific antibody, V domains shown)
VH 1: QVQLVESGGGVVQPGKSLRLSCAASGFTFSRSGMHWVRQAPGKGLEWVALISFDGSNKYYADSVKGRFTISRDNSKNTLNLQMNSLRAEDTAVYYCAKGGFGVVIYDAFDIWGHGTMVTVSS
VH 2: QVQLQESGPGLVKPSETLSLTCTVSGGSISGHYWSWIRQSPGKGLEWIGYITYSGSTNYNPSLKSRVTISVDTSKNQFSLKLSSVTAADTAVYYCGTIAVAGRVYYYGVDVWGRGTTVTVSS
VL: not shown
B4: anti-HER3/MET bispecific antibody 1C5-8H10 (bispecific antibody, V domains shown)
VH 1: B3 VH 1
VH 2: B1 VH 2
VL: not shown
B5: anti-HER3/MET bispecific antibody 1C5-2F11 (bispecific antibody, V domains shown)
VH 1: B3 VH 1
VH 2: EVQLVESGPGLVKPSETLSLTCTVSGGSISSNYWSWIRQPPGKGLEWIGYIYHSGSTNYNPSLKSRVTISVDTSKNQFSLKLSSVTAADTAVYFCARGPVSIFGVVKYIDLWGRGTLVTVSS
VL: not shown

T1 sequence (P08581 25-1390 limits assumed): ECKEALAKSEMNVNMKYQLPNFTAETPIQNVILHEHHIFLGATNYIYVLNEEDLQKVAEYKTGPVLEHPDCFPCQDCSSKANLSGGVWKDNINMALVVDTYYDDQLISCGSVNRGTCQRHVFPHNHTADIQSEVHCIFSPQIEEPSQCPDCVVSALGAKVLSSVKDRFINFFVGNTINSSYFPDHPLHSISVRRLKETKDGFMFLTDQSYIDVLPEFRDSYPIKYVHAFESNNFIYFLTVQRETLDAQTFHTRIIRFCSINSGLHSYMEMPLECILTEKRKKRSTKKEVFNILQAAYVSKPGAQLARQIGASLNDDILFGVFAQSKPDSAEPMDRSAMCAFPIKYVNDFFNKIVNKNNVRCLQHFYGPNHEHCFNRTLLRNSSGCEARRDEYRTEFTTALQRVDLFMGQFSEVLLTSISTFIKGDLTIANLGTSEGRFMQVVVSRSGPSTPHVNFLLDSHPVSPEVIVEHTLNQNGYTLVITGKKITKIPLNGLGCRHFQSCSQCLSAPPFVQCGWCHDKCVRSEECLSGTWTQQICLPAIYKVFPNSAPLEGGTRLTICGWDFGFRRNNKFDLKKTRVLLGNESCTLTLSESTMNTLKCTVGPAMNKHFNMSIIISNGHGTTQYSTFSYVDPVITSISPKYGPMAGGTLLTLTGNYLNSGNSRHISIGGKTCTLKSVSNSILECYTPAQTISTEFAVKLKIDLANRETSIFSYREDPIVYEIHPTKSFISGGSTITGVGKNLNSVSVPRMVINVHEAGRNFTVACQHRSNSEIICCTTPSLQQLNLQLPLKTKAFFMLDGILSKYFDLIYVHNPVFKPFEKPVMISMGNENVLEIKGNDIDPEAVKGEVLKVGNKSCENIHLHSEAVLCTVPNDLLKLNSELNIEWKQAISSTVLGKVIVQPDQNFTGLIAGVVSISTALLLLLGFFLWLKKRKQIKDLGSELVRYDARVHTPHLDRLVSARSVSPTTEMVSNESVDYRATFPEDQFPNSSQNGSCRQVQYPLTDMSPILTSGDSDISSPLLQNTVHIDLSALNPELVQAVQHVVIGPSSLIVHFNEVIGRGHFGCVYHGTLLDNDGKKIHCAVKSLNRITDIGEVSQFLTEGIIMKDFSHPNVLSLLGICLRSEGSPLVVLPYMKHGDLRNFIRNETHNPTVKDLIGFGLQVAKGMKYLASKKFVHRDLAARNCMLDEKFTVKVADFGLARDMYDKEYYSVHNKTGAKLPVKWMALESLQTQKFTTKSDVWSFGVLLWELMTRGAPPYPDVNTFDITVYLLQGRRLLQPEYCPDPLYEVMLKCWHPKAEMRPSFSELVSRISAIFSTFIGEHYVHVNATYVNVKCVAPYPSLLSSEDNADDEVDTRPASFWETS
T7 sequence (P08581 25-932 limits assumed): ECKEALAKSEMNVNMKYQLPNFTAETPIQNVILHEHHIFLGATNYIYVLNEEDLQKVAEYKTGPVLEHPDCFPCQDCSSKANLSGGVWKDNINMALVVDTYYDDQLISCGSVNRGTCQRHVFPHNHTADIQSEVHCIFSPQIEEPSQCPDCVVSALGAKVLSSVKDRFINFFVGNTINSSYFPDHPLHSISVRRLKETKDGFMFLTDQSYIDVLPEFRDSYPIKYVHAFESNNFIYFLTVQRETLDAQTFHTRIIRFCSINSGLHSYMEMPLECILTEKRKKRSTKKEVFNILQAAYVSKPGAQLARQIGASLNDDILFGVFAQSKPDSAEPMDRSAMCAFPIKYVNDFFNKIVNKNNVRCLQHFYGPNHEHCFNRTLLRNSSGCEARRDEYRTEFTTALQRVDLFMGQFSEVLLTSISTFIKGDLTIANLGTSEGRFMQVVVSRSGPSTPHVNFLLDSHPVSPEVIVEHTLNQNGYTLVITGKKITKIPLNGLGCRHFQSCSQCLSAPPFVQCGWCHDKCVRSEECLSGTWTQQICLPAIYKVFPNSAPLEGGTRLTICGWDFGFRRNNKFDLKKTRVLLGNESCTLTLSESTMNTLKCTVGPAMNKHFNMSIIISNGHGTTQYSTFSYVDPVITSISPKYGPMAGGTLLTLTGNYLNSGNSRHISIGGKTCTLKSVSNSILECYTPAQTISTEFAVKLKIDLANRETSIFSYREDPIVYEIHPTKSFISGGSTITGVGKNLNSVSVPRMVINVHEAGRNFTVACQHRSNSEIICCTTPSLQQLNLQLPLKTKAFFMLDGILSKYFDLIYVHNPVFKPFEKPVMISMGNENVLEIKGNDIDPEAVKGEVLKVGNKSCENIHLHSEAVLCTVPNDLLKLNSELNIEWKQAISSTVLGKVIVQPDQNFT

The first experiment has as its target T1, human MET on NIH3T3-hMET cells (human, UniProt P08581 25-1390).
T1 construct: NIH3T3 cells transfected with a plasmid expressing hMET
The experiment can be described thus: flow cytometry, transfected NIH3T3 cells. On the procedure:
(§1) Specifically, CHO-hHER3 cells, CHO-fasHER3 cells, NIH3T3-hMET cells or NIH3T3-fasMET cells were transferred to a 96-well plate at a density of 5×10⁴ cells/well respectively. The antibodies were added to the 96-well plate, and incubated at 4° C. for 30 min.
For orientation: A flow cytometer gives signals particle by particle.
As for B1, the “Positive Cells” value was determined as 99.7%.

For the molecule B2, the “Positive Cells” value stood at 99.8%.

B3: the “Positive Cells” value was 99.8%.

As to B4, the “Positive Cells” value was 99.8%.

For B5, the “Positive Cells” value stood at 99.7%.

The next experiment deals with T2, monkey MET on NIH3T3-fasMET cells (monkey, UniProt A0M8R7 25-1381).
T2 construct: NIH3T3 cells transfected with a plasmid expressing fasMET
T2 sequence (A0M8R7 25-1381 S170N/I621T limits assumed): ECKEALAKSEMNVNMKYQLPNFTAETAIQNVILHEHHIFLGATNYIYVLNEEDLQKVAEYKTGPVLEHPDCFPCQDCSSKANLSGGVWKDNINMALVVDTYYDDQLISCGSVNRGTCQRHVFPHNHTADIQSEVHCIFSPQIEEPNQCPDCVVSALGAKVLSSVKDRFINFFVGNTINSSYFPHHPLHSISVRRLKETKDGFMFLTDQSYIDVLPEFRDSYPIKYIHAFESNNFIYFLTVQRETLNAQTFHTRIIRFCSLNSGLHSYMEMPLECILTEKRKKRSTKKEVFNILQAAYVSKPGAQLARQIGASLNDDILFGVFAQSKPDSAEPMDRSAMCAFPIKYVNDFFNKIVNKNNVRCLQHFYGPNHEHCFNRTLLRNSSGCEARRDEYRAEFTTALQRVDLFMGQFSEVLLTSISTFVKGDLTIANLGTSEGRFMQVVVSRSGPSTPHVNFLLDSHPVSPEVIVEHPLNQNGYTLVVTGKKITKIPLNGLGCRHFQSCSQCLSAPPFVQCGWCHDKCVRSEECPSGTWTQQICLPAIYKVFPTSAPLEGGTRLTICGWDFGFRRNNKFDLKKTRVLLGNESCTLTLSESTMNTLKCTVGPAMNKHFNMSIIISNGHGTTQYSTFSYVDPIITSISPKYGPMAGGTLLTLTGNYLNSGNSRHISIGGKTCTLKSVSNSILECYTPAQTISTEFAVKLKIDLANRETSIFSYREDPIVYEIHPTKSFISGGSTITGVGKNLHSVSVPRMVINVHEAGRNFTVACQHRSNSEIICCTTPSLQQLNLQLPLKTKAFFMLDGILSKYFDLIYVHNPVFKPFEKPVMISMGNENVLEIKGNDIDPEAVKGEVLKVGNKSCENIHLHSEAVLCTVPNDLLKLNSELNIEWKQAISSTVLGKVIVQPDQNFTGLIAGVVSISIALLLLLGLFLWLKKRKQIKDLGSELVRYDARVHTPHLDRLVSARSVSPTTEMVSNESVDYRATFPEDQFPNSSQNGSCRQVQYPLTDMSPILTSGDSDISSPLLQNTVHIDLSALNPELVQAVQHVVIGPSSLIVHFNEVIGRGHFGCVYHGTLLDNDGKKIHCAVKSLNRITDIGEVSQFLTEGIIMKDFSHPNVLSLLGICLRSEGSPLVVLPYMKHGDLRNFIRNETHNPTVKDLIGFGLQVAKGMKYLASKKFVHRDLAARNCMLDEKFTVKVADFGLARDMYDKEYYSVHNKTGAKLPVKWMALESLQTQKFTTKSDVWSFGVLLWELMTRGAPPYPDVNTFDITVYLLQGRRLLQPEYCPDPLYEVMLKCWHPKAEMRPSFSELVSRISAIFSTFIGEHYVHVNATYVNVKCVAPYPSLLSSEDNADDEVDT
The experiment can be described thus: flow cytometry, transfected NIH3T3 cells. On the procedure:
as §1
For B1, the “Positive Cells” value came to 54.6%.

On to B2, for which the “Positive Cells” value turned out to be 57.2%.

With B3, the “Positive Cells” value was 65.1%.

Consider B4, for which the “Positive Cells” value amounted to 54.8%.

For the molecule B5, the “Positive Cells” value is 68.4%.

The target in another experiment is T3, monkey (Macaca fascicularis) HER3 on CHO-fasHER3 cells (monkey (Macaca fascicularis), UniProt P21860 20-643 (human entry)).
T3 construct: CHO-S cells transfected with fasHER3
T3 chain: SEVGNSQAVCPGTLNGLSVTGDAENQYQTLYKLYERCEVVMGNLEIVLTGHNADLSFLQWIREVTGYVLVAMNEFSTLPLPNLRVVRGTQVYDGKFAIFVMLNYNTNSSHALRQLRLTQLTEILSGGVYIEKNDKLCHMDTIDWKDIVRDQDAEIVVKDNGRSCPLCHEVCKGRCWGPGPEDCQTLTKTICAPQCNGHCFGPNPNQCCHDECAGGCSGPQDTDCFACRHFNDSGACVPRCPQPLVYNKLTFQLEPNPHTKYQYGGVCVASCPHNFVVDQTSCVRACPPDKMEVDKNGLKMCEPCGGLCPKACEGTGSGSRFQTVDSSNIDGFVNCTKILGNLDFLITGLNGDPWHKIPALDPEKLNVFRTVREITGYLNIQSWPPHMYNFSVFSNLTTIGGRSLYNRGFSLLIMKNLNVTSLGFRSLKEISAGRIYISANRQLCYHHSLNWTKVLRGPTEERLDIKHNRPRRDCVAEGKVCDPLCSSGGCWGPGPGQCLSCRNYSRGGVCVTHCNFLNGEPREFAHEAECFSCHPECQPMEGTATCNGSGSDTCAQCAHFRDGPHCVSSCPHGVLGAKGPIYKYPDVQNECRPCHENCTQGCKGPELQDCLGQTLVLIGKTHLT
The experiment can be described thus: flow cytometry, transfected CHO cells. As to the method: as §1
As to B1, the “Positive Cells” value turned out to be 66%.

Consider B2, for which the “Positive Cells” value was found to be 64.4%.

Consider B3, for which the “Positive Cells” value was found to be 60.4%.

Consider B4, for which the “Positive Cells” value was found to be 58.9%.

With B5, the “Positive Cells” value was 54.9%.

The next experiment addresses T4, human HER3 on CHO-hHER3 cells (human, UniProt P21860 20-643).
T4 construct: CHO-S cells transfected with hHER3
Description: flow cytometry, transfected CHO cells. On the procedure: as §1
As for B1, the “Positive Cells” value was 72.1%.

With B2, the “Positive Cells” value worked out at 67.9%.

With B3, the “Positive Cells” value was 64.8%.

For the molecule B4, the “Positive Cells” value is 67.3%.

Regarding B5, the “Positive Cells” value was 56%.

The next experiment deals with T5, His-tagged human HER3 protein (hHER3, ACRO Biosystems Inc., Cat #: ER3-H5223) (human, UniProt P21860 20-643).
T5 construct: Bought protein; also called hHER3-His; not shown: His tag
Description: SPR, Ab captured on Protein A, antigen 400 nM. As to the method: (§2) Purified antibodies were captured on the Protein A chip (Series S Sensor Chip Protein A) for the detection. 2 μg/mL antibodies were loaded at 10 μL/min to bind to hHER3, fasHER3, hMET or fasMET (400 and 0 nM). The flow rate was 30 μL/min, the binding and dissociation time were set to 180 s and 400 s, respectively. The chip was regenerated after the last injection of each titration with a glycine solution ([…]) at 30 μL/min for 30 seconds.
For orientation: Surface plasmon resonance follows binding to a sensor surface in real time, without labels.
Take B1: binding was characterised by a dissociation constant (Kd) of 14.5 nM, the koff came out at 0.00332 s⁻¹ and the on-rate constant (kon) is 229000 M⁻¹ s⁻¹.

The molecule B2 came in with a Kd of 16.9 nM, a koff of 0.00265 s⁻¹ and an association rate constant (kon) of 157000 M⁻¹ s⁻¹.

B3: binding was characterised by a dissociation constant (Kd) of 31.1 nM, the off-rate (koff) is 0.000605 s⁻¹ and the on-rate (kon) stood at 19400 M⁻¹ s⁻¹.

The molecule B4 showed a Kd of 28.5 nM, a koff of 0.000593 s⁻¹ and a kon of 20800 M⁻¹ s⁻¹.

As for B5, the dissociation constant (Kd) came out at 29.3 nM, the koff came to 0.000548 s⁻¹ and the kon was determined as 18700 M⁻¹ s⁻¹.

The next experiment deals with T6, His-tagged monkey HER3 protein (fasHER3, Sino Biological, Inc., Cat #: 90043-K08H) (monkey).
T6 construct: Bought protein
Description: SPR, Ab captured on Protein A, antigen 400 nM. As to the method: as §2
On to B1, for which the dissociation constant Kd worked out at 32.2 nM, the off-rate constant (koff) is 0.00318 s⁻¹ and the on-rate (kon) worked out at 98700 M⁻¹ s⁻¹.

B2 returned a dissociation constant Kd of 38.7 nM, a koff of 0.00263 s⁻¹ and a kon of 67800 M⁻¹ s⁻¹.

Molecule B3 had a dissociation constant Kd of 97 nM, a koff of 0.000671 s⁻¹ and a kon of 6920 M⁻¹ s⁻¹.

Molecule B4 displayed a Kd of 81.5 nM, an off-rate constant (koff) of 0.000655 s⁻¹ and an on-rate (kon) of 8040 M⁻¹ s⁻¹.

On to B5, for which the affinity, expressed as Kd, was 103 nM; the off-rate (koff) was found to be 0.000582 s⁻¹; the on-rate constant (kon) was found to be 5630 M⁻¹ s⁻¹.

A further experiment has as its target T7, His-tagged human MET (hMET, Sino Biological, Inc., Cat #: 10692-H08H) (human, UniProt P08581 25-932).
T7 construct: Bought protein; not shown: His tag
Description: SPR, Ab captured on Protein A, antigen 400 nM. On the procedure:
as §2
Consider B1, for which the affinity, expressed as Kd, was 12.7 nM; the koff is 0.00516 s⁻¹; the kon was 408000 M⁻¹ s⁻¹.

B2 came in with a Kd of 10.9 nM, an off-rate constant (koff) of 0.00626 s⁻¹ and a kon of 574000 M⁻¹ s⁻¹.

Consider B3, for which binding was put at a Kd of 22.5 nM, the dissociation rate constant (koff) amounted to 0.000531 s⁻¹ and the kon came to 23600 M⁻¹ s⁻¹.

In turn, B4 showed a dissociation constant (Kd) of 12.8 nM, a dissociation rate constant (koff) of 0.00427 s⁻¹ and an on-rate (kon) of 333000 M⁻¹ s⁻¹.

B5 showed a Kd of 44.2 nM, an off-rate (koff) of 0.00282 s⁻¹ and an on-rate constant (kon) of 63800 M⁻¹ s⁻¹.
